Assay [1] deals with T1, human CEACAM6 expressed on Pan02/Pgp-KO/hCEACAM6 cells (human, UniProt P40199 35-320).
T1 construct: also called carcinoembryonic antigen-related cell adhesion molecule 6; CD66c
T1 sequence: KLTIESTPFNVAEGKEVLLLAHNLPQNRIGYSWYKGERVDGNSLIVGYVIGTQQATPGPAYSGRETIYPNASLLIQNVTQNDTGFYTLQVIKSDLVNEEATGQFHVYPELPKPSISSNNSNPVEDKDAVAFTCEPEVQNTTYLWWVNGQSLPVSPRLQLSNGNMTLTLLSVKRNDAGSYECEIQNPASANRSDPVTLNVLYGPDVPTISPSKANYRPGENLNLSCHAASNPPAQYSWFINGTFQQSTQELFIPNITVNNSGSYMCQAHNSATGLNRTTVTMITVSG
The assay is described as follows: flow cytometry sorting ([..] II) of Pan02 cells transfected with human CEACAM6. The source says:
The mouse pancreatic cancer cell line Pan02 (National Institutes of Health) was transfected with recombinant Cas9 protein (Alt-R S.p. HiFi Cas9 V3, Integrated DNA Technologies), and mouse Abcb1a and single guided RNA (Aft-R CRISPR sgRNA, Integrated DNA Technologies) for Abcb1b, using a NEPA21 Super Electroporator (Nepa Gene). The obtained cells were further transfected with human CEACAM6 using pLV[Exp]-Puro-EFS lentiviral vector (VectorBuilder) and MISSION Lentiviral Packaging Mix (Sigma-Aldrich). […] The established cells were designated as cell line Pan02/Pgp-KO/hCEACAM6, and were maintenance cultured in a 5% CO₂ incubator (37° C.) using RPMI (FujiFilm-Wako Pure Chemical Industries) containing 10% fetal bovine serum (FBS: SIGMA 173012) and penicillin/streptomycin (FujiFilm-Wako Pure Chemical Industries) (hereunder referred to simply as “culture medium”).
(A flow cytometer gives signals particle by particle.)

In assay [2] the target is human CEACAM6 extracellular domain-MBP-His protein (human). The assay is described as follows: ELISA: FLAG-tagged scFv from E. coli supernatant captured on anti-FLAG antibody, 20 nM antigen, HRP-labeled anti-His antibody detection, absorbance at 450 nm. As for the experimental part:
(§1) After the second panning procedure, a single colony from the concentrated phage-infected TG1 cells was transferred to culture medium on a 96-well plate. IPTG was added to induce expression of the FLAG-tagged scFv, and vibration culture was carried out overnight at 30° C. The TG1 cells were spinned down and the scFv-containing E. coli culture supernatant was used to pickup the wells that were reactive with human CEACAM6.
(§2) Reactivity with human CEACAM6 was evaluated by ELISA according to the following procedure, using either human CEACAM6 extracellular domain-SEAP-His protein or human CEACAM6 extracellular domain-MBP-His protein. The wells of a 96-well plate (Nunc) were coated with anti-FLAG antibody (Sigma). After incubation overnight at 4° C., the wells were blocked with 2% skim milk (BD) for 2 hours at room temperature. After rinsing 3 times with 0.02% Tween20/PBS (Nacalai Tesque, Inc.), human CEACAM6 extracellular domain-SEAP-His protein or human CEACAM6 extracellular domain-MBP-His protein (final concentration: 20 nM) and E. coli culture supernatant containing scFv were added to each well and incubation was continued for 2 hours at room temperature. […] An equivalent of stopping solution (1N H₂SO₄, FujiFilm Wako Pure) was added to each well, and the absorbance at 450 nm was read off using a microplate reader (Thermo Scientific). […]
On the technique in general: An ELISA detects its analyte on a solid surface through an enzyme-linked reagent.

Assay [3] addresses T2, human CEACAM6 extracellular domain-SEAP-His protein (human).
T2 chain: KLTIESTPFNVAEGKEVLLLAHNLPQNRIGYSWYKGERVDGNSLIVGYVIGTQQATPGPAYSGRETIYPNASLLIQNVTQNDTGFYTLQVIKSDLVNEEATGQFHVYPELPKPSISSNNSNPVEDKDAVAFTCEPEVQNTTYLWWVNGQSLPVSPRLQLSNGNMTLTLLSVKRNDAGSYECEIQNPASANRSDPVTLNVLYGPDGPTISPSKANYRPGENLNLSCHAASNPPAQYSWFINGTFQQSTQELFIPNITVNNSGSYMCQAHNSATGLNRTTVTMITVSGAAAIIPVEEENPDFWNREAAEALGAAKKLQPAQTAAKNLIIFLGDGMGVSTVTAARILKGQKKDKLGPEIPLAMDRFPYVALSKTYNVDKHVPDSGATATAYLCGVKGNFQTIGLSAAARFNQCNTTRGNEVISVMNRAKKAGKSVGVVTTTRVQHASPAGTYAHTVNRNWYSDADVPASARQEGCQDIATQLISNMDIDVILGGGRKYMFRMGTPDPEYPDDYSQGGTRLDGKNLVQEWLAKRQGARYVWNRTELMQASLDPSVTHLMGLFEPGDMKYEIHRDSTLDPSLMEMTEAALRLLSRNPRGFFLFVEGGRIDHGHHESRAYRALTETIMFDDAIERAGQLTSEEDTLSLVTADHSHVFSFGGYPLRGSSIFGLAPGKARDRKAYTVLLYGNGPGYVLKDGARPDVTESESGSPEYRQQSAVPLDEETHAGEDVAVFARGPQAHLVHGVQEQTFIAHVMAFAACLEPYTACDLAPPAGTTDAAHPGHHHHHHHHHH
The assay is described as above. As to the method:
as §1, §2

B1: antibody A (human anti-CEACAM6_#84.7 monoclonal antibody) (antibody, human IgG1, lambda, V domains shown)
VH: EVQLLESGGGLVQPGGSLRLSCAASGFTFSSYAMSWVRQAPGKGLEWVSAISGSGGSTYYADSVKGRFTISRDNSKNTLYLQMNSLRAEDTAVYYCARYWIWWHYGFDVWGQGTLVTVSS
VL: SSELTQDPAVSVALGQTVRITCQGDSLRSYYASWYQQKPGQAPVLVIYGKNNRPSGIPDRFSGSSSGNTASLTITGAQAEDEADYYCQSYYSSSHYVVFGGGTKLTVLG
notes: The heavy chain constant region is human IgG1/2m: IgG1 CH1 and hinge, IgG2 CH2 and CH3 with V234A and G237A (Eu numbering); The light chain constant region is human Ig lambda
B1: the binding result in assay [1] is on record as “binds”.

B2: human antibody fragment (scFv) specifically binding to human CEACAM6, from which antibody A was designed (scFv, V domains shown)
VH: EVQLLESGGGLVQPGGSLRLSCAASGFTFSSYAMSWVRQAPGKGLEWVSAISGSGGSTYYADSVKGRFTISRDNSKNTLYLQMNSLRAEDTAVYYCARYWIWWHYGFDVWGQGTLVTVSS
VL: SSELTQDPAVSVALGQTVRITCQGDSLRSYYASWYQQKPGQAPVLVIYGKNNRPSGIPDRFSGSSSGNTASLTITGAQAEDEADYYCQSYYSSSHYVVFGGGTKLTVL
notes: Tested as a single-chain FLAG-tagged scFv in E. coli culture supernatant; also called FLAG-tagged scFv
For the molecule B2, the binding result in assay [2] and in assay [3] was “binds” in each case.

Source of the values: patent publication US20240148895A1 (EISAI R AND D MANAGEMENT, published 2024).
